From article PMC12394075 come the findings set out here.

For this test, the target named is HA-GSGS-tagged rat mGluR2 with TAG at Ala548 (CRD linker sensor) (rat) (UniProt P31421).

Heterotrimeric Gi1, sequence (P63096 whole entry, looked up, one chain of several): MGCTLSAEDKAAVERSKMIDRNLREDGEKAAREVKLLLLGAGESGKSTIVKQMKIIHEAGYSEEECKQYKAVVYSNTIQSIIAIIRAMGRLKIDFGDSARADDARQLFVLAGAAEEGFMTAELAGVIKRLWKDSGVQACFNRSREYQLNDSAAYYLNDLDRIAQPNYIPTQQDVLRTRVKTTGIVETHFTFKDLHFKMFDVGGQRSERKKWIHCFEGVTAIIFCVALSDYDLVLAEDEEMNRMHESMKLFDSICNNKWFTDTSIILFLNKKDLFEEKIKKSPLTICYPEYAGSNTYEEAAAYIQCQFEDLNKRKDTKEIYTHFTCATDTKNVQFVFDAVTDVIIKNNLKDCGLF

Substance “Heterotrimeric Gi1 (from UniProt P63096 1-354) (complex)” yielded a smFRET of the CRD sensor with 10 mM glutamate and 4–5 µM Gi1 heterotrimer: occupancy of the high-FRET state (E ~ 0.85) of 20%.
